Read-outs that look alike come from different tables or passages of the source.
Columns and labels:
[1] = target: GST-BRCA2 fragment B2-9 (amino acids 3189–3418) (UniProt P51587); assay: pull-down
[2] = target: GST-BRCA2 fragment B2-9 (amino acids 3189–3418) (UniProt P51587); assay: pull-down; remark: listed apart in the source

Chain of UniProt P51587 (P51587 3189-3418): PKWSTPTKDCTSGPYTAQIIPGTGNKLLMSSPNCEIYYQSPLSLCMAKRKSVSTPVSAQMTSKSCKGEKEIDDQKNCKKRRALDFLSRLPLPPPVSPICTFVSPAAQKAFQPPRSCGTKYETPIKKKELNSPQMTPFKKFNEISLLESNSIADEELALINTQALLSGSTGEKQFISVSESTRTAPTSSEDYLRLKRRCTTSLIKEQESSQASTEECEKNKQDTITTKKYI

IC50 [1]: 29.5 nM | IC50 [2]: 28.5 nM
Substance: purified cyclin A (from UniProt P20248 1-432) (natural protein)
